Results on 1 substance are retold here after US20200190209A1.

pKd: −log10 of the molar value.

In this test the target is recombinant human CD38 his tagged (extracellular domain) (human) (UniProt P28907). The test is described as follows: ForteBio BLI. (In BLI a coated tip is dipped into the sample, and binding shifts an interference pattern.)

Take “IB4 (reference monoclonal agonistic mouse anti-human CD38 antibody)”: the pKd was 8.05.

One may read the pKd as −log10 of the Kd, conventionally taken in molar units.
